From patent US20190177416A1 (NANOMAB TECHNOLOGY, published 2019)
Changes are numbered by the printed parent chain.

B1: SEQ ID NO 83 (VHH)
VHH: QVQLQESGGGLVQTGGSLRLSCAASTSIYSNNYLAWFSQAPGKGREGVAAVYIGDGRPYYADSVKGRFPISLNSAQNKVYLQMNSLKPEDTAMYYCAAAPGPLSRNYWYTSANYDYWGQGTQVTVSS
notes: pMECS-expressed; also called VHH numbered 83
B2: SEQ ID NO 84 (VHH)
VHH: QVQLQESGGGSVQTGGSLRLSCAASTSIDSNNYMAWFRQAPGKGREGVAAVYIDDGRPYYADSVKGRFTISLDSAKNTVYLQMNSLKPEDTAMYYCAAAPGPLSRHYWYTSANYDYWGPGTQVTVSS
notes: pMECS-expressed; also called VHH numbered 84
B3: SEQ ID NO 85 (VHH)
VHH: B2 VHH with D29Y, R38S, D54A, G56D, H106N, P119Q
notes: pMECS-expressed; also called VHH numbered 85
B4: SEQ ID NO 86 (VHH)
VHH: B2 VHH with E6D, D29Y, N31I, R38S, I53T, D54G, H106N, P119Q
notes: pMECS-expressed; also called VHH numbered 86
B5: SEQ ID NO 18 (VHH)
VHH: QVQLQESGGGSVQAGGSLRLSCAASGYTYSSDGMGWFRQTPGKEREGVAAISPTGRRTEYADSVKGRFTISRDNNKNMLSLQMNSLKPEDTGMYYCAREGSWSFSLANSAVRSWGQGTQVTVSS
notes: pMECS-expressed; also called VHH numbered 18
B6: SEQ ID NO 20 (VHH)
VHH: QVQLQESGGGLVQPGGSLRLSCAASGFTGSIYAMSWVRQAPGKGLEWVSTISSSGGRRFYADSVKGRFTISRDNAKNTLYLQLNSLKTEDTAMYYCARCSDIYCDNGASYRGQGTQVTVSS
notes: pMECS-expressed; also called VHH numbered 20
B7: SEQ ID NO 58 (VHH)
VHH: B6 VHH with A24L, G29S, S30T, S52N, S54D, R57Y, F59Y, L86P, D105Y, A108P
notes: pMECS-expressed; also called VHH numbered 58
B8: SEQ ID NO 61 (VHH)
VHH: QVQLQESGGGLVQPGGSLRLSCAASGFDFSSRAMSWVRQAPGKGLEWVSTINSGGGSRYYADSVKGRFTTSRDNAKNTLALQLNSLKTEDTAMYYCARCSDIYCDNGAWYRGQGTQVTVSS
notes: pMECS-expressed; also called VHH numbered 61
B9: SEQ ID NO 70 (VHH)
VHH: B8 VHH with D28T, S31I, G56D, T70I, L79M, A80Y, A97V, D105Y, W109S
notes: pMECS-expressed; also called VHH numbered 70
B10: SEQ ID NO 74 (VHH)
VHH: B6 VHH with L11S, P14A
notes: pMECS-expressed; also called VHH numbered 74
B11: SEQ ID NO 45 (VHH)
VHH: B6 VHH with G29F, Y32K, S52D, S54G, F59Y, N84S, Y95F, D105Y
notes: pMECS-expressed; also called VHH numbered 45
B12: SEQ ID NO 50 (VHH)
VHH: QVQLQESGGGLVQPGGSLRLSCIASGFTFSIMAMSWVRQAPGKGLEWVSTINSDGGKTYYADSVKGRFTISRDNAKNTLYLQLNSLRTEDMAMYYCRRCADIYCSGSGGWTGQGTQVTVSS
notes: pMECS-expressed; also called VHH numbered 50
B13: SEQ ID NO 72 (VHH)
VHH: B12 VHH with I23E, F27L, T28P, M32I, K57T, Y59H, M91T, A100T
notes: pMECS-expressed; also called VHH numbered 72
B14: SEQ ID NO 73 (VHH)
VHH: B12 VHH with I23E, F27L, T28P, M32I, K57T, Y59H, M91T, A100T, S107F
notes: pMECS-expressed; also called VHH numbered 73
B15: SEQ ID NO 79 (VHH)
VHH: QVQLQESGGGLVQPGGSLRLSCAASGLPFSIIAMSWVRQAPGKGIEWVSTINSGGGTTHYADSVKGRFTISRDNAKNTLYLQLNSLRTEDTAVYYCRRCADIYCSGSGGWTGLGTQVTVSS
notes: pMECS-expressed; also called VHH numbered 79
B16: SEQ ID NO 65 (VHH)
VHH: B12 VHH with I23A, M32L, V48I, S53N, D54S, K57T, Y59F, M91T, A100T, G106L
notes: pMECS-expressed; also called VHH numbered 65

Molecular target: T1, human PD-L1 protein (coated antigen) (human, UniProt Q9NZQ7 19-238, limits assumed)
T1 construct: Construct not described; also called PD-L1 antigen; antigenic protein PD-L1
T1 sequence (Q9NZQ7 19-238 limits assumed): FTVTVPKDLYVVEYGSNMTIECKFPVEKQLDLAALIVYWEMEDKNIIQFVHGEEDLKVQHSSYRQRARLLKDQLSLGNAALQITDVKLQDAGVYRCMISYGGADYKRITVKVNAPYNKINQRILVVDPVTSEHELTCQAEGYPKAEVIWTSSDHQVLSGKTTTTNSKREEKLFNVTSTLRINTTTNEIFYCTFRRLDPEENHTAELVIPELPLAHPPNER
Assay: PE-ELISA, crude extract on coated PD-L1
Method: (1) From the cell culture dishes containing phage after 3-4 rounds of screening in Example 2, 1000 individual colonies were selected and inoculated into TB medium containing 100 μg/ml of ampicillin (1 liter of TB medium contains 2.3 g of potassium dihydrogen phosphate, 12.52 g of dipotassium hydrogen phosphate, 12 g of peptone, 24 g of yeast extract, 4 ml of glycerol), after growth to log phase, add a final concentration of […] of IPTG, culture at 28° C. overnight. (2) The crude antibody was obtained by the infiltration method, and the antibody was transferred to an antigen-coated ELISA plate and placed at room temperature for 1 hour. (3) Unbound antibody was washed away with PBST, and a mouse anti-HA tag antibody (anti-mouse anti-HA antibody, purchased from Beijing Kangwei Century Biotechnology Co., Ltd.) was added and placed at room temperature for 1 hour. (4) Unbound antibody was washed away with PBST, and anti-mouse alkaline phosphatase conjugate (goat anti-mouse alkaline phosphatase-labeled antibody, purchased from Amytech Co., Ltd.) was added and placed at room temperature for 1 hour. (5) Wash the unbound antibody with PBST, add alkaline phosphatase coloring solution, and read the absorbance at 405 nm on an ELISA apparatus. (6) When the OD value of the sample well is more than 3 times the OD value of the control well (Ratio+/−>3), it is judged as a positive clone hole. (7) The bacteria of the positive clone well were shaken in a LB liquid containing 100 μg per ml to extract a plasmid and perform sequencing.

| Binder | OD ratio (experimental group (A405 nm)/control group (A405 nm)) |
| --- | --- |
| B1 | > 20 |
| B2 | > 20 |
| B3 | > 20 |
| B4 | > 20 |
| B5 | > 20 |
| B6 | > 20 |
| B7 | > 20 |
| B8 | > 20 |
| B9 | > 20 |
| B10 | > 20 |
| B11 | > 20 |
| B12 | > 20 |
| B13 | > 20 |
| B14 | > 20 |
| B15 | > 20 |
| B16 | > 20 |
